First the molecules themselves.
B1: KCNA1 (parent)
chain: LKASMRELGLLIFFLFIGVILFSS
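Further: lentivirally expressed fusions sorted by FACS into six bins by GFP to DsRed ratio, PSI derived from sequencing read proportions per bin multiplied by bin number.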

The variants in this data set derive from B1. The data set can be described thus: protein stability index of a GFP-peptide fusion (GPS, HEK-293T) (PSI 1-6); higher = more stable. As to conditions: c terminus: a fixed tail appended.
As to LKASMRELGLLIFFLFIGVIDFSS, the protein stability index amounted to 3.39. As to LKASMRELGLLIFFLFIGVIQFSS, the protein stability index amounted to 3.29. With LKASMRELGLLIFFLFIGVINFSS, the protein stability index is 2.64. As for LKASMRELGLLIFFLFIGVIIFSS, the figure is 2.17; as for LKASMRELGLLIFFLFIGVIMFSS, 2.32; as for LKASMRELGLLIFFLAIGVILFSS, 2.14. On to LKASMRELGLLIFFLPIGVILFSS, for which the protein stability index was 2.96. Turning to LKASMRELGLLIFFLLIGVILFSS, the protein stability index turned out to be 2.91.

As for LKASMRELGLLIFFLIIGVILFSS, the protein stability index turned out to be 2.25. As to LKASMRELGLLIFFLKIGVILFSS, the protein stability index is 2.35. Then LKASMRELGLLIFFLHIGVILFSS, with 3.79; and LKASMRELGLLIFFLTIGVILFSS, with 2.77. On to LKASMRELGLLIFFLDIGVILFSS, for which the protein stability index came to 1.64.

For the variant LKASMRELGLLIFFLVIGVILFSS, the protein stability index worked out at 2.07.

In the case of LKASMRELGLLIFFLMIGVILFSS, the protein stability index is 2.17. As for LKASMRELGLLIFFLEIGVILFSS, the protein stability index was found to be 3.14. Regarding LKASMRELGLLIFFLYIGVILFSS, the protein stability index turned out to be 3.35.

Take LKASMRELGLLIFFLRIGVILFSS: the protein stability index was found to be 1.32. As for LKASMRELGLLIFFLSIGVILFSS, the figure is 2.55. With LKASMRELGLLIFFLWIGVILFSS, the protein stability index stood at 2.38. As for LKASMRELGLLIFFLGIGVILFSS, the protein stability index stood at 3.06.

In the case of LKASMRELGLAIFFLFIGVILFSS, the protein stability index turned out to be 3.12.

For LKASMRELGLGIFFLFIGVILFSS, the protein stability index turned out to be 3.63. With LKASMRELGLIIFFLFIGVILFSS, the protein stability index was found to be 2.49. Then LKASMRELGLTIFFLFIGVILFSS, with 4.58; and LKASMRELGLEIFFLFIGVILFSS, with 2.36; and LKASMRELGLWIFFLFIGVILFSS, with 2.73. On to LKASMRELGLPIFFLFIGVILFSS, for which the protein stability index was 1.89. In the case of LKASMRELGLYIFFLFIGVILFSS, the protein stability index was determined as 3.48.

LKASMRELGLFIFFLFIGVILFSS: the protein stability index came out at 1.74. On to LKASMRELGLMIFFLFIGVILFSS, for which the protein stability index is 1.73. As for LKASMRELGLCIFFLFIGVILFSS, the protein stability index was 4.25.

For LKASMRELGLDIFFLFIGVILFSS, the protein stability index was 3.53.

LKASMRELGLVIFFLFIGVILFSS: the protein stability index was determined as 1.61. In the case of LKASMRELGLKIFFLFIGVILFSS, the protein stability index was 3.54.

LKASMRELGLRIFFLFIGVILFSS: the protein stability index is 3.65. As to LKASMRELGLHIFFLFIGVILFSS, the protein stability index amounted to 2.95. As for LKASMRELGTLIFFLFIGVILFSS, the figure is 3.06.

For LKASMRELGSLIFFLFIGVILFSS, the protein stability index is 2.77. Then LKASMRELGWLIFFLFIGVILFSS, with 2.58. For LKASMRELGNLIFFLFIGVILFSS, the protein stability index was 4.61. As for LKASMRELGVLIFFLFIGVILFSS, the protein stability index was found to be 1.23. As for LKASMRELGMLIFFLFIGVILFSS, the figure is 3.58; as for LKASMRELGRLIFFLFIGVILFSS, 2.83. Regarding LKASMRELGPLIFFLFIGVILFSS, the protein stability index stood at 2.75. As for LKASMRELGQLIFFLFIGVILFSS, the protein stability index was found to be 2.94.

With LKASMRELGYLIFFLFIGVILFSS, the protein stability index came out at 2.13. With LKASMRELGLLIFFPFIGVILFSS, the protein stability index worked out at 2.29. As for LKASMRELGLLIFFYFIGVILFSS, the protein stability index turned out to be 2.55. With LKASMRELGLLIFFKFIGVILFSS, the protein stability index came out at 2.54.

For the variant LKASMRELGLLIFFWFIGVILFSS, the protein stability index came out at 2.7. LKASMRELGLLIFFFFIGVILFSS: the protein stability index was determined as 1.79. LKASMRELGLLIFFNFIGVILFSS: the protein stability index is 3.33. LKASMRELGLLIFFTFIGVILFSS: the protein stability index was determined as 3.59. As for LKASMRELGLLIFFGFIGVILFSS, the figure is 2.53.

With LKASMRELGLLIFFCFIGVILFSS, the protein stability index was found to be 2.37. In the case of LKASMRELGLLIFFMFIGVILFSS, the protein stability index worked out at 1.7. On to LKASMRELGLLIFFIFIGVILFSS, for which the protein stability index came out at 1.55. Turning to LKASMRELGLLIFFSFIGVILFSS, the protein stability index was found to be 2.67.

As to LKASMRELGLLIFFRFIGVILFSS, the protein stability index was determined as 2.01. Turning to LKASMRELGLLIFFAFIGVILFSS, the protein stability index worked out at 2.44. Regarding LKASMRELGLLIFFHFIGVILFSS, the protein stability index worked out at 2.11. As to LKASMRELGLLIFRLFIGVILFSS, the protein stability index was determined as 2.41. As for LKASMRELGLLIFNLFIGVILFSS, the figure is 2.85; as for LKASMRELGLLIFVLFIGVILFSS, 2.82. LKASMRELGLLIFSLFIGVILFSS: the protein stability index was found to be 3.66.

In the case of LKASMRELGLLIFCLFIGVILFSS, the protein stability index was found to be 1.95. As for LKASMRELGLLIFILFIGVILFSS, the figure is 2.74; as for LKASMRELGLLIFELFIGVILFSS, 2.74. As for LKASMRELGLLIFGLFIGVILFSS, the protein stability index is 3.88. For the variant LKASMRELGLLIFTLFIGVILFSS, the protein stability index stood at 2.79. Take LKASMRELGLLIFDLFIGVILFSS: the protein stability index came out at 2.93. With LKASMRELGLLIFHLFIGVILFSS, the protein stability index came out at 3.41. Then LKASMRELGLLIFYLFIGVILFSS, with 3.01. For the variant LKASMRELGLLIFMLFIGVILFSS, the protein stability index came out at 2.48. Turning to LKASMRELGLLIFWLFIGVILFSS, the protein stability index is 3.78. Consider LKASMRELGLLIFPLFIGVILFSS, for which the protein stability index turned out to be 4.04. Then LKASMRELGLLIFLLFIGVILFSS, with 2.98; and LKASMRELGLLIFALFIGVILFSS, with 4.15; and LKASMRELGLLIFKLFIGVILFSS, with 2.65. For the variant LKASMRELGLLIFFLFIGVFLFSS, the protein stability index came out at 2.32. Then LKASMRELGLLIFFLFIGVCLFSS, with 2.75.

With LKASMRELGLLIFFLFIGVALFSS, the protein stability index came out at 3.3. As to LKASMRELGLLIFFLFIGVTLFSS, the protein stability index was 2.4. As for LKASMRELGLLIFFLFIGVMLFSS, the figure is 3.52. As for LKASMRELGLLIFFLFIGVELFSS, the figure is 2.38; as for LKASMRELGLLIFFLFIGVSLFSS, 2.1; as for LKASMRELGLLIFFLFIGVYLFSS, 2.65. Regarding LKASMRELGLLIFFLFIGVWLFSS, the protein stability index was 2.02.

Take LKASMRELGLLIFFLFIGVVLFSS: the protein stability index turned out to be 3.45. In the case of LKASMRELGLLIFFLFIGVDLFSS, the protein stability index was found to be 3.22. For the variant LKASMRELGLLIFFLFIGVKLFSS, the protein stability index was determined as 3.18.

Take LKASMRELGLLIFFLFIGVLLFSS: the protein stability index turned out to be 1.96. Take LKASMRELGLLIFFLFIGVQLFSS: the protein stability index amounted to 2.9.

The record behind these values is the supplement of paper PMC10567573.
